# From US20230189818A1, “RNA-BASED CONTROL OF BOTRYTIS” (priority 2021, published 2023)
# B1: GS2297: dsRNA trigger targeting B. cinerea Bcrpb5 (XM_024693733.1); trigger SEQ ID NO 23, RNA 35, reverse complement 47 (nucleic acid, listed as Botrytis cinerea)
# sense: UGCACCAUCAGGUCCCGCUCAAAAGAUUAUUCCCGCUGUCGCAUCCGAGACAAGAAUCGAGACCUUCGUCGAGCAAGAUUUACUUGUCAAUAUUACACAUCAUGAAUUGGUUCCCAAGCAUGUUUUGUUAAGUAGAGAAGAGAGGGCCAAGUUGUUGUCAAGAUAUAGAUUGAAGGAUACUCAACUCCCACGUAUUCAGGCUGCGGAUCCAGUUGCAAAAUAUUUGGGAUUGAGAAGAGGGCAGGUCGUUAAGAUUAUCAGAAAGUCGGAAACUGCUGGUCGUUAUGCCAGUUACAGAUUGUGCGUAUAAUGGAGCUGGAGGGUAGAUGAUUUGGUGUUAAUAACUAGGGAGUUUCUUGGGAAAAAUUUGCAUAUUUGGGGAAGGCGUAAUAGGCUGGAAGAAAGACUGAGGAUGAGAUUGUCUAUUUUGGCUUUCCAGGAAGCAAUACUUUGAGACAUGAAAUUUGAUAUUAAAUUUCUUGUUCUGUAUAUUUCUGAUAGUUUCAGAGCUUUUCAAUAAGAUCUAUUCUACAGUUUUAAGAAUCCAGACUCACCCUUUGAGAAGCUCAUACAAAGUUCCUUCCUA
# antisense: UAGGAAGGAACUUUGUAUGAGCUUCUCAAAGGGUGAGUCUGGAUUCUUAAAACUGUAGAAUAGAUCUUAUUGAAAAGCUCUGAAACUAUCAGAAAUAUACAGAACAAGAAAUUUAAUAUCAAAUUUCAUGUCUCAAAGUAUUGCUUCCUGGAAAGCCAAAAUAGACAAUCUCAUCCUCAGUCUUUCUUCCAGCCUAUUACGCCUUCCCCAAAUAUGCAAAUUUUUCCCAAGAAACUCCCUAGUUAUUAACACCAAAUCAUCUACCCUCCAGCUCCAUUAUACGCACAAUCUGUAACUGGCAUAACGACCAGCAGUUUCCGACUUUCUGAUAAUCUUAACGACCUGCCCUCUUCUCAAUCCCAAAUAUUUUGCAACUGGAUCCGCAGCCUGAAUACGUGGGAGUUGAGUAUCCUUCAAUCUAUAUCUUGACAACAACUUGGCCCUCUCUUCUCUACUUAACAAAACAUGCUUGGGAACCAAUUCAUGAUGUGUAAUAUUGACAAGUAAAUCUUGCUCGACGAAGGUCUCGAUUCUUGUCUCGGAUGCGACAGCGGGAAUAAUCUUUUGAGCGGGACCUGAUGGUGCA
# Legend:
# B. cinerea = assay: Open-air field trial on snap bean (Example 4.3, AUDPC of % disease severity); assay type: in vivo, Botrytis cinerea; conditions: Switch 525 g ai/ha, GS349 20 and 40, GS2280 10 and 40, GS2303 10, 20 and 40, GS2297 20 g ai/ha, FIG. 9
# Protocol: RNAi compositions, each containing a dsRNA comprising a trigger sequence (GS349, GS2280, GS2303, or GS2297) described herein were evaluated for ability to control botrytis on snap bean in open-air filed trials. All test samples were formulated with RO water, propylene glycol, a linear alcohol ethoxylate, a lignosulfanate, sodium citrate dihydate, a polyacrylic acid polymer, two biocide compositions, anhydrous citric acid, and an antifoam, all of which are readily commercially available. Formulation samples were tank mixed with a standard adjuvant, the non-ionic surfactant, Activator 90 0.125%v/v. Compositions were tested at concentrations of 10, g ai/ha, 20 g ai/ha, and 40 g ai/ha. Positive controls were a chemical standard, Switch 525 g ai/ha and a biological standard, Double Nickel LC 9.4 I/ha, both of which were also tank mixed with Activator 90 0.125% v/v. As above, an untreated check was used as a negative control.
# Compositions were applied to snap bean plants using a small plot sprayer delivering 50 gallons of water per acre. A total of three applications were used for each sample and positive control. Disease state was evaluated beginning 8 days after the first application and ending 37 days after the third and final application. Percent Disease Severity was assessed and AUDPC was calculated in the same manner as noted in Example 4.1.
# Botrytis cinerea conidia = assay: In vitro liquid-based assay (fungal biomass, 96-well plates, Cytation 5); assay type: cell-based; conditions: co-incubated with conidia for three days, vs untreated control
# Outline: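 Conidia (5000/mL stock) were co-incubated with dsRNA or control treatments in pH 6.0 minimal medium. Incubation ran 72 h at 23 °C, shaking at 120 rpm under continuous light. Fungal biomass was measured by brightfield imaging (8 slices per well, 2.5× lens) and expressed as average reduction versus control.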
molecule,measurement,setting,value
B1,Disease state compared to treatment with the chemical standard (AUDPC),B. cinerea,no significant difference
same,Average % Reduction in Biomass,Botrytis cinerea conidia; 25 ppm dsRNA,11%
same,Average % Reduction in Biomass,Botrytis cinerea conidia; 150 ppm dsRNA,24%
